Source: patent publication CN117062835A (ONCORIS PONS, dated 2023)

B1: 变体4(V4) (antibody, V domains shown)
VH: EVQLVESGGGVVQPGRSLRLSCAASGFTFSSYVMHWVRQAPGKGLEWVAVISEDGSNKYNADSVKGRFTISRDNSKNTLYLQMNSLRAEDTAVYYCARENVRPYYDFWSGYSSEYYYYGLDVWGQGTTVTVSS
VL: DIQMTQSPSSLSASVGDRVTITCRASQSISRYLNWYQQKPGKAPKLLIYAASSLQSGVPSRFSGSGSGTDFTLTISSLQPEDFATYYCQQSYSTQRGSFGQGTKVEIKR
notes: also called 克隆4
B2: 变体1(V1) (antibody, V domains shown)
VH: EVQLVESGGGVVQPGRSLRLSCAASGFTFSSYDMHWVRQAPGKGLEWVAVISEDGSNKYNADSVKGRFTISRDNSKNTLYLQMNSLRAEDTAVYYCARENVRPYYDFWSGYSSEYYYYGLDVWGQGTTVTVS
VL: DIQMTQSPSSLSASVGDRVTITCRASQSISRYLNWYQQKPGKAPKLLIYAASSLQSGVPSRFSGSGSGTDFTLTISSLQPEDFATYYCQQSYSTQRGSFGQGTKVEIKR

Tests used:
加His标签的重组人类CD163(R&D …) [1] = molecular target: T1, 加His标签的重组人类CD163(R&D Systems，编号1607-CD-050)蛋白 (human, UniProt Q86VB7 46-1050); experiment: ELISA EC50 ratio; lower end of the range, tied to V4 through the highest EC50 of Table 7
T1 construct: Bought recombinant protein coated on ELISA plates; also called 重组CD163蛋白; huCD163; not shown: His tag
T1 sequence (Q86VB7 46-1050 limits assumed): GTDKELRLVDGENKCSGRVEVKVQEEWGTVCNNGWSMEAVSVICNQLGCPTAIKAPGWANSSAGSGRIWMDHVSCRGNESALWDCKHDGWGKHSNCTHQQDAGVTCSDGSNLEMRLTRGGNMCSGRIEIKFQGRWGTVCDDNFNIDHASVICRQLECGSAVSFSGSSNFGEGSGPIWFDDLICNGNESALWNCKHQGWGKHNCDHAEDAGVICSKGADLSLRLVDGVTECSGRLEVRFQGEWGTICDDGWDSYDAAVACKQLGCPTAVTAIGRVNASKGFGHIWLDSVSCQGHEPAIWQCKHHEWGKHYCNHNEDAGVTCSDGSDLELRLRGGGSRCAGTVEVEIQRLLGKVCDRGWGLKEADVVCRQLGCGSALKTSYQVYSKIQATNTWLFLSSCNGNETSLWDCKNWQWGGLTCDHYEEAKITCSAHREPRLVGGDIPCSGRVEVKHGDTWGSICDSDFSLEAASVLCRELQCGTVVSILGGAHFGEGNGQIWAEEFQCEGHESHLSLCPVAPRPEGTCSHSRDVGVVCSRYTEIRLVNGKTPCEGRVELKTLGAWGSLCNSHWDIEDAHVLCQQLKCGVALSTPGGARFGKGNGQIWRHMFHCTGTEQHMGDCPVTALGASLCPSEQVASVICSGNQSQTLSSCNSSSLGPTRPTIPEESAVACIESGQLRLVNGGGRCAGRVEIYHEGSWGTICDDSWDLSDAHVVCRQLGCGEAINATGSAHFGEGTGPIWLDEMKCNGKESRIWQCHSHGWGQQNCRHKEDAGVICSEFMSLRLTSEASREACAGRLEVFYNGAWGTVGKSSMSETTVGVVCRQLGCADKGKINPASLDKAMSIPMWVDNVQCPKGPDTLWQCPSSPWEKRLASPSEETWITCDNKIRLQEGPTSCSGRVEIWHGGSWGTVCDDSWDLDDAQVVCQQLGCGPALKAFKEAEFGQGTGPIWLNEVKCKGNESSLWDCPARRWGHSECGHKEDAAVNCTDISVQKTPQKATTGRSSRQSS

人类CD163蛋白(生物素化) = molecular target: T2, 人类CD163蛋白(生物素化) (human, UniProt Q86VB7 46-1050, limits assumed, biotinylated (sites not given)); experiment: BLI, b-huCD163 on SA biosensor, four antibody concentrations
T2 construct: also called b-huCD163; 生物素标记的人类CD163
T2 sequence (Q86VB7 46-1050 limits assumed): as above

加His标签的重组人类CD163(R&D …) [2] = molecular target: T1, 加His标签的重组人类CD163(R&D …); experiment: ELISA EC50 ratio; upper end of the range, tied to V1 through the lowest EC50 of Table 7

Row | Binder | fold stronger binding than AB101 parental antibody (加His标签的重组人类CD163(R&D …) [1]) [fold] | fold increase of affinity against AB101 parental Ab (人类CD163蛋白(生物素化)) [fold] | fold stronger binding than AB101 parental antibody (加His标签的重组人类CD163(R&D …) [2]) [fold]
1 | B1 | 27 | ~3760 | 
2 | B2 |  |  | 45
